Experiment: label from the status in PepcDB records

Sequence: MAEAPPVSGTFKFNTDAAEFIPQERKTSGLNCGTQRRLDSSRIGRRNYSSSPPCHLPRHIPYEDISAVHQHSYASGSKPKSPQGFFQSSNKSLKNHGLQNQPWQKARNEKHQNRNKKAQGLSEQTSDTSSLESVARSESGTNPREHSPSESEKEVVIADPRGAKPKKAAQLTYNYGRGPKAKGRLRSEWGNRMSPKSEDENTRPVAISHTDSSDASCRKPVVDPCVCRRNEQRRYPQKRPPWEVEGARPRPGRNPPKQESQRHINAGPKTNMSPIPKDNLRERPTKSACDTGNLAVVSKSSRRVNQEKTAVRRQDPQVLSPFPRGKQNHMLKNVETHTGSLIEQLTTEKYECMVCCELVQVTAPVWSCQSCFHVFHLNCIKKWARSPASHADGQSGWRCPACQNVSAHVPNTYTCFCGKVKNPEWSRNEIPHSCGEVCRKKQPGQDCPHSCNLLCHPGPCPPCPAFTTKTCECGRTRHTVRCGQPVSVHCSNACENILNCGQHHCAELCHGGQCQPCRIILNQVCYCGSTSRDVLCGTDVGKSDGFGDFSCLKICGKDLKCGSHTCSQVCHPQPCQPCPRLPHLVRYCPCGQTPLSQLLEHGSNARKTCMDPVPSCGKVCGKPLACGSSDFIHTCEKLCHEGDCGPCSRTSVISCRCSFRTKELPCTSLKSEDATFMCDKRCNKKRLCGRHKCNEICCVDKEHKCPLICGRKLRCGLHRCEEPCHRGNCQTCWQASFDELTCHCGASVIYPPVPCGTRPPECTQTCARIHECDHPVYHSCHSEEKCPPCTFLTQKWCMGKHEELTIKKLWTFKETLDF
- protein production: not failed

Sequence: ERIRYESQIKRFNRIMDTTMENIPAGIVVKDIENDFRYIYRNRESYNRDISSENAIGMNDFDYYPPEMAQQKRKEDMEIAATGKGMHWIMEGKDKNGNLLILDKQKIMVESEDFSPIIVSIEWDIT
- protein production: failed

Sequence: MRVFFSTLAGLALALAAGGAVASGLGDADKGREVFRQCAFCHAVGEGAENGIGPHLNGVFGRAAGRIEGVQYSKSMIRMGNDGLIWTAQTLDAYIENPRALVSKTRMSFRGIKNEQERSDLMAYLRRYSDDPGNIPEAEPTATGTDHDLDPVILAIQGDPEYGEYLASECKTCHQTSGANDGIPGITQWPTEDFVVAMHAYKRKLRPHPVMQMMAGRLSNDEIAALAAYFQDLE
- protein production: failed

Sequence: AIAPVKKKRKAPGVAAAVAEDAGLKKCKIPSYCRSQPPARLISGEEDFSRKKCLAWFYEYAGPDEVVGPEGMEKFCEDIGVEPENIIMLVLAWKLEAESMGFFTKEEWLKGMTSLQCDCTEKLQSRFDFLRSQLNDISSFKNIYTYAFDFARDKDQRSLDIDTAKSMLALLLGRTWPLFSVFYQYLEQSKYRVMNKDQWYNVLEFSRTVHADLSNYDEDGAWPVLLDEFVEWQKNPSNIIARTVVKTMQTL
- protein production: failed

Sequence: MGLWAAVHAERRGIATIIADAGRLGGGASGGLLGALMPHMPDRWSEKKQFQFDALVSLEAEIAALEAATGLSAGYNRSGRLIPLPKPHLNRIARGHSEDAERHWQAGERRFHWHVVDRPDADGWVDASAGASGFVHDTLAARVAPRSLMSALIASLRQAKFVRILEYAAVAGLDPDRGTADIGGETIAFSRCILAAGHQSFPLLQELTLGPKKPLGQPVKGQATLLKAAIDPALPTIFLDGLYIVAHEGGHVAIGSTSENRFNDPFSTDAQLDALIETARAIVPILRDAPVVERWAGLRPKAIDRDPMIGCHPDHPRLIALTGGFKVSFGLAHRLAEAAVCIADDIDCEYLLPESFAISSHIAAASR
- protein production: failed

Sequence: MKELIKVIAFDADDTLWSNEPFFQEVEKQYTDLLKPYGTSKEISAALFQTEMNNLQILGYGAKAFTISMVETALQISNGKIAADIIRQIVDLGKSLLKMPIELLPGVKETLKTLKETGKYKLVVATKGDLLDQENKLERSGLSPYFDHIEVMSDKTEKEYLRLLSILQIAPSELLMVGNSFKSDIQPVLSLGGYGVHIPFEVMWKHEVTETFAHERLKQVKRLDDLLSLLG
- protein production: not failed

Sequence: TKALNFTYTLDSGVKGTLYQFPAEYTLLFINNPGCHACAEMIEGLKASPVINGFTAAKKLKVLSIYPDEELDEWKKHRNDFAKEWTNGYDKELVIKNKNLYDLRAIPTLYLLDKNKTVLLKDATLQKVEQYLAERG
- protein production: not failed
